According to patent publication US20110312897A1, “CATHEPSIN L PROTEOLYTICALLY PROCESSES HISTONE H3 DURING MOUSE EMBRYONIC STEM CELL DIFFERENTIATION” (THE ROCKEFELLER UNIVERSITY, priority 2008, published 2011):
Where no end group is shown, it is not given here.

Tests used:
Assay type in all cases: biochemical
[1] = molecular target: T1, rCathepsin L (Mus musculus, UniProt P06797); assay: ELISA based H3cs.1 cleavage assay of H3 15-31 peptides; conditions: pH 7.5 and pH 5.5; compared to unmodified H3 15-31 peptide
T1 construct: purchased R&D Systems 1515-CY-010
T1 sequence (P06797 114-334): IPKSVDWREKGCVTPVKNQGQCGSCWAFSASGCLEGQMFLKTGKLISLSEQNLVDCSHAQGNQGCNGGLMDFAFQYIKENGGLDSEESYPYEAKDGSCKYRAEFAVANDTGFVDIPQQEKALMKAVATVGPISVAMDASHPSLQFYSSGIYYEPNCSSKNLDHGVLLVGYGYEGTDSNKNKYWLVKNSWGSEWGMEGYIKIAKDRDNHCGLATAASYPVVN
Method: FIG. 7A is an immunoblot showing cleavage of the modified recombinant histone 3 substrates following incubation with rCathepsin L. The four rH3 substrates used in the cleavage assay include: 1=rH3 unmodified, 2=rH3 alkylated to K27me2, 3=rH3 pan-acetylated with acetic anhydride, 4=rH3+K27me2 pan-acetylated with acetic anhydride. FIG. 7B is a graph showing the amount of recombinant H3 cleavage product formed following incubation with Cathepsin L. H3 cleavage reactions were performed as in FIG. 7A using synthesized H3 peptides representing amino acids 15 to 31. Reactions were incubated with ˜250 pmol peptide and quenched with 0.1% TFA before being plated in duplicate for ELISA with the H3cs.1 antibody. Signal was normalized to that of mock reactions for each peptide. Results represent three independent experiments. […] Binding decreases 3-fold with cleaved peptide. p<0.01. Kds are in μM±SEM. Data points represent the mean±SD
In order to test the effect of these modifications more quantitatively and specifically, a set of five peptides with identical backbone sequences flanking the H3 cleavage site (H3 15-31) were synthesized and then modified as follows: unmodified, K18 acetyl, K23 acetyl, K18ac+K23ac, and K27me2. An ELISA based assay using the H3cs.1 antibody described previously (characterized in FIG. 11) was used to quantitatively measure the H3cs.1 cleavage activity of rCathepsin L on these peptides.

[2] = molecular target: T2, H3 protease activity in fraction #23 (Mus musculus, UniProt P06797); assay: In vitro H3 cleavage assay of hydroxyapatite fraction #23 +/- protease inhibitors
T2 construct: a double chain mature form at ˜25 kD and ˜5 kD; endogenous in cells; host or cells: chromatin of 3 days +RA differentiating mouse ESCs (LF2), hydroxyapatite fraction #23
T2 sequence (P06797 114-288 limits assumed): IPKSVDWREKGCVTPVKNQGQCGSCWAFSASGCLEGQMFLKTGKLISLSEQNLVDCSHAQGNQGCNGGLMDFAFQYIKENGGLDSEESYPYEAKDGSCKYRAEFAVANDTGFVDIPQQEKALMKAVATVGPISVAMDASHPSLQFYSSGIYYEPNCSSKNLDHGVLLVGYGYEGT
T2 sequence (P06797 291-334 limits assumed): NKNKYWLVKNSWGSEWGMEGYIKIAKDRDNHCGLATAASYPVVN
Method: (§1) Extracts were incubated in buffer (10 mM HEPES, 10 mM KCl, 1.5 mM MgCl2, 0.34M sucrose, 10% glycerol, 5 mM β-mercaptoethanol, all final) with 0.1 μg/μl rH3-HIS (purified from E. coli) and incubated at 37° C. for 1-3 hours. Reactions were stopped by addition of 5×SDS sample buffer and boiling; results were analyzed by immunoblotting with HIS-HRP and/or H3.cs1 antibody. For MS analysis, reactions were quenched by addition of 0.1% (final) TFA. rCathepsin L (R&D Systems, # 1515-CY-010), rCathepsin B (R&D Systems Cat No. BAF965), and rCathepsin K (Calbiochem Cat. No. 342001) were purchased from commercial sources and tested in the assay with rH3-HIS.
Three days+RA differentiating ESC chromatin pellets were solubilized by sonication in buffer A (80 mM NaPO^−4, 200 mM NaCl), injected onto a 2 or 5 mL hydroxyapatite column (BioRad), and fractionated with a 200 mM to 2M NaCl gradient. Each fraction was then assayed as described above. […] Digest was then acidified with glacial acetic acid and aliquots of samples were analyzed using an LTQ-FT as described above. Data was searched against a mouse database using SEQUEST (Eng et al., Journal of the American Society of Mass Spectrometry 5:976-989 (1994), which is hereby incorporated by reference in its entirety). All spectra of interest were manually validated.
To validate further the identification of Cathepsin L as a histone H3 protease, the enriched fractions were tested with different classes of protease inhibitors in the H3 cleavage assay.

[3] = molecular target: H3 cleavage activity (Mus musculus, UniProt P06797); assay: H3 cleavage activity with addition of chelators; conditions: moderately high concentrations
Sequence of H3 cleavage activity (P06797 114-334): as the sequence (P06797 114-334) above
Method: as §1, with “Reactions were stopped by addition of 5×SDS sample buffer and boiling; results were analyzed by immunoblotting with HIS-HRP and/or H3.cs1 antibody.” left out, “rH[…].” for “rH3-HIS.”

Row | H3cs.1 cleavage activity of rCathepsin L on peptide [1] | Compound | also measured
1 | strongly increases | K27me2: synthesized H3 15-31 peptide modified with K27me2 (APRKQLATKAARKSAPA; K27 dimethylation; UniProt P68433 16-32, looked up, fragment) | 
2 | increases | K18 acetyl: synthesized H3 15-31 peptide acetylated at K18 (APRKQLATKAARKSAPA; K18 acetylation; UniProt P68433 16-32, looked up, fragment) | 

Further lines, the compound ahead of its results:

Row | Compound | H3cs.1 cleavage activity of rCathepsin L on peptide [1] | also measured
3 | K18ac+K23ac: synthesized H3 15-31 peptide acetylated at K18 and K23 (APRK(Ac)QLATK(Ac)AARKSAPA; UniProt P68433 16-32, looked up, fragment) | very little cleavage activity | 
4 | NCCc1ccc(S(=O)(=O)F)cc1 [AEBSF] |  | H3 cleavage activity ([2]; AEBSF 2 mM and 10 mM): not at the lower concentrations tested; H3 cleavage activity ([2]; AEBSF 20 mM): modest reduction in cleavage activity
5 | K23ac: synthesized H3 15-31 peptide acetylated at K23 (APRKQLATK(Ac)AARKSAPA; UniProt P68433 16-32, looked up, fragment) | very little cleavage activity | 
6 | O=C(O)CN(CCOCCOCCN(CC(=O)O)CC(=O)O)CC(=O)O [EGTA] |  | H3 cleavage activity [3]: Significant inhibition
7 | O=C(O)CN(CCN(CC(=O)O)CC(=O)O)CC(=O)O [EDTA, Ethylenediaminetetraacetic acid] |  | H3 cleavage activity [3]: Significant inhibition
